Laboratory results reported in paper PMC4121237, “Engineering Neprilysin Activity and Specificity to Create a Novel Therapeutic for Alzheimer’s Disease” (PLoS ONE, 2014).

B1: NEP G714K: single mutant G714K of the human NEP ectodomain (protein, UniProt P08473 52-750, looked up, variant G714K)
extracellular domain: YDDGICKSSDCIKSAARLIQNMDATTEPCTDFFKYACGGWLKRNVIPETSSRYGNFDILRDELEVVLKDVLQEPKTEDIVAVQKAKALYRSCINESAIDSRGGEPLLKLLPDIYGWPVATENWEQKYGASWTAEKAIAQLNSKYGKKVLINLFVGTDDKNSVNHVIHIDQPRLGLPSRDYYECTGIYKEACTAYVDFMISVARLIRQEERLPIDENQLALEMNKVMELEKEIANATAKPEDRNDPMLLYNKMTLAQIQNNFSLEINGKPFSWLNFTNEIMSTVNISITNEEDVVVYAPEYLTKLKPILTKYSARDLQNLMSWRFIMDLVSSLSRTYKESRNAFRKALYGTTSETATWRRCANYVNGNMENAVGRLYVEAAFAGESKHVVEDLIAQIREVFIQTLDDLTWMDAETKKRAEEKALAIKERIGYPDDIVSNDNKLNNEYLELNYKEDEYFENIIQNLKFSQSKQLKKLREKVDKDEWISGAAVVNAFYSSGRNQIVFPAGILQPPFFSAQQSNSLNYGGIGMVIGHEITHGFDDNGRNFNKDGDLVDWWTQQSASNFKEQSQCMVYQYGNFSWDLAGGQHLNGINTLGENIADNGGLGQAYRAYQNYIKKNGEEKLLPGLDLNHKQLFFLNFAQVWCGTYRPEYAVNSIKTDVHSPKNFRIIGTLQNSAEFSEAFHCRKNSYMNPEKKCRVW
modifications: extracellular domain
notes: single mutant G714K of the human NEP ectodomain
B2: NEP G399V: single mutant G399V of the human NEP ectodomain (protein, UniProt P08473 52-750, looked up, variant G399V)
extracellular domain: YDDGICKSSDCIKSAARLIQNMDATTEPCTDFFKYACGGWLKRNVIPETSSRYGNFDILRDELEVVLKDVLQEPKTEDIVAVQKAKALYRSCINESAIDSRGGEPLLKLLPDIYGWPVATENWEQKYGASWTAEKAIAQLNSKYGKKVLINLFVGTDDKNSVNHVIHIDQPRLGLPSRDYYECTGIYKEACTAYVDFMISVARLIRQEERLPIDENQLALEMNKVMELEKEIANATAKPEDRNDPMLLYNKMTLAQIQNNFSLEINGKPFSWLNFTNEIMSTVNISITNEEDVVVYAPEYLTKLKPILTKYSARDLQNLMSWRFIMDLVSSLSRTYKESRNAFRKALYVTTSETATWRRCANYVNGNMENAVGRLYVEAAFAGESKHVVEDLIAQIREVFIQTLDDLTWMDAETKKRAEEKALAIKERIGYPDDIVSNDNKLNNEYLELNYKEDEYFENIIQNLKFSQSKQLKKLREKVDKDEWISGAAVVNAFYSSGRNQIVFPAGILQPPFFSAQQSNSLNYGGIGMVIGHEITHGFDDNGRNFNKDGDLVDWWTQQSASNFKEQSQCMVYQYGNFSWDLAGGQHLNGINTLGENIADNGGLGQAYRAYQNYIKKNGEEKLLPGLDLNHKQLFFLNFAQVWCGTYRPEYAVNSIKTDVHSPGNFRIIGTLQNSAEFSEAFHCRKNSYMNPEKKCRVW
modifications: extracellular domain
notes: single mutant G399V of the human NEP ectodomain

What was measured:
Format in all cases: biochemical
[1] = tested on: Aβ1–40; assay: Steady-state kinetics of peptide cleavage, fluorescence polarisation; settings: for Km / kcat / Fold change in kcat/KM: substrate Aβ 1–40; for Km / kcat: 37°C, pH 7.4; for Fold change in kcat/KM: ratio of wild-type NEP kcat/KM to that of the mutant; for increase in kcat/KM (catalytic efficiency) on Aβ1–40 over wild-type NEP: substrate Aβ1–40, relative to wild-type NEP
Description: (§1) For detailed kinetic characterisation of peptide cleavage by NEP, a similar assay to that above was used with modifications based on a published method. Peptides were synthesised by Bachem using 9-fluorenylmethyloxycarbonyl solid-phase peptide synthesis and were labelled with a N-terminal 5(6)FAM via a ε-aminocaproic acid linker and a C-terminal biotin via a lysine linker (Table S1). Purified peptides were supplied as trifluoroacetate salts with a purity ≥95%. The assay was performed in a 96-well microtitre plate and contained 50 mM HEPES (pH 7.4), 100 mM NaCl, 0.05% (w/v) BSA (Buffer A), 1–200 µM peptide substrate and 1–500 nM NEP protein. Reactions were incubated at 37°C before being stopped at various time points between 2 and 360 min by transferring 5 µL aliquots to 245 µL Buffer A containing 2 mM 1,10-phenanethroline (Sigma) and 2 µM avidin (Invitrogen). For peptide substrates containing disulphide bonds, 1 mM tris(2-carboxyethyl)phosphine (Thermo Scientific) was added to the stop solution. The fluorescence polarisation of the resulting solution was measured on a Victor plate reader and the amount of substrate cleaved was determined with reference to substrate-only controls with and without avidin. Initial rates were obtained by linear regression of the linear regions of time courses. Enzyme velocity was plotted as a function of substrate concentration and the Michaelis-Menten equation was used to fit the data, giving the parameters kcat and KM.

[2] = tested on: Glucagon; assay: as above; settings: substrate Glucagon; for Km / kcat: 37°C, pH 7.4; for Fold change in kcat/KM: ratio of wild-type NEP kcat/KM to that of the mutant
Description: as §1

[3] = tested on: Bradykinin; assay: as above; settings: substrate Bradykinin; for Km / kcat: 37°C, pH 7.4; for Fold change in kcat/KM: ratio of wild-type NEP kcat/KM to that of the mutant
Description: as §1

[4] = tested on: Angiotensin; assay: as above; settings: substrate Angiotensin; for Km / kcat: 37°C, pH 7.4; for Fold change in kcat/KM: ratio of wild-type NEP kcat/KM to that of the mutant
Description: as §1

[5] = tested on: Neurotensin; assay: as above; settings: substrate Neurotensin; for Km / kcat: 37°C, pH 7.4; for Fold change in kcat/KM: ratio of wild-type NEP kcat/KM to that of the mutant
Description: as §1

[6] = tested on: Aβ1–40 or 1–42 and eight off-target peptides; assay: High-throughput fluorescence polarisation screen of NEP variants; settings: high throughput screening, relative to wild-type
Description: To screen NEP variants for improved activity on and specificity towards Aβ a high-throughput assay was developed where cleavage activity on Aβ1–40 or 1–42 and eight off-target peptides (see Table S1) was determined by fluorescence polarisation. Peptide substrates were labelled with DY-505 or DY-647 at the N-terminus and biotin at the C-terminus. The biotin serves for increasing the molecular size of uncleaved peptides after addition of strepavidin, thereby increasing the assay window and measurable signals. Peptide cleavage assays were performed by incubating NEP variant samples in a microtitre plate containing assay solution composed of 60 nM peptide substrate in 50 mM HEPES (pH 7.4) containing 150 mM NaCl and 0.05% Pluronic F-68 (Sigma). […] The extent of peptide cleavage was determined by measuring the fluorescence polaristion of the stopped reactions on a plate reader (Tecan) with an appropriate set up of polarisation filters. […]
To rank these variants the change in activity on the Aβ1–40 peptide was divided by the average change in specificity on the other peptides and then by the specificity of the wild-type enzyme. […] At many other positions only a single amino acid substitution was detected as having improved specificity, and some of these provided the largest gains observed. […]

Molecule	Km [1] [µM]	kcat [1] [s⁻¹]	Fold change in kcat/KM [1]	increase in kcat/KM (catalytic efficiency) on Aβ1–40 over wild-type NEP [1] [fold]	Km [2] [µM]	kcat [2] [s⁻¹]	Fold change in kcat/KM [2]	Km [3] [µM]	kcat [3] [s⁻¹]	Fold change in kcat/KM [3]	Km [4] [µM]	kcat [4] [s⁻¹]	Fold change in kcat/KM [4]	Km [5] [µM]	kcat [5] [s⁻¹]	Fold change in kcat/KM [5]	improvement in specificity ([6]; activity on Aβ1–40 relative to other peptides)	improvement in activity on Aβ [6] [fold]
B1	42 ± 0.7	1.9 ± 0.2	0.18	~6	42 ± 5	5.2 ± 0.3	1.5	120 ± 8	7.4 ± 0.3	7.5	18 ± 1	12 ± 0.3	1.5	10 ± 0.7	8.6 ± 0.2	0.98	approximately 12 fold	~7
B2	55 ± 7	2.7 ± 0.2	0.16	~6	20 ± 2	2.9 ± 0.1	1.2	79 ± 10	0.15 ± 0.01	250	3.6 ± 0.4	0.73 ± 0.03	4.6	12 ± 1	1.1 ± 0.04	8.2	–	–
